{
  "source": "patent US20230212319A1",
  "about": "“NOVEL ANTIGEN BINDING DOMAINS AND SYNTHETIC ANTIGEN RECEPTORS INCORPORATING THE SAME” (University of Southern California, priority 2020, published 2023)",
  "molecules": {"B1": {"name": "22053 (protein)", "chain": "MALPVTALLLPLALLLHAARPQLQLQESGPGLVKPSETLSLTCTVSGDSISSGDYYWGWIRQPPGKGLEWIGHIYYSGVTYYNPSLKSRVTISVDTSRNQFSLKLSSVTAADTAVYYCTREDSSNWRSRGQGTLVTVSSLEDKTHTCPPCPAPIKTDVITMDPKDNCSKDANDTLLLQLTNTSAYYMYLLLLLKSVVYFAIITCCLLRRTAFCCNGEKSRAKRSGSGATNFSLLKQAGDVEENPGPTSMDWIWRILFLVGAATGAHSFEVQLVESGGGVVQPGRSLRLSCAASGFSFSGYGMHWVRQAPGKGLEWVAYISYDGSNKYYADSVKGRFTISRDNSKNTLYLQMNSLRAEDTAVYYCAKDPAWGLRLGESSSYDFDIWGQGTMVTVSSTRDKTHTCPPCPAIPEDTFFPSPESSCDVKLVEKSFETDTNLNFQNLSVIGFRILLLKVAGFNLLMTLRLWSSRAKRSGSGVKQTLNFDLLKLAGDVESNPGPSRGHMTEYKPTVRLATRDDVPRAVRTLAAAFADYPATRHTVDPDRHIERVTELQELFLTRVGLDIGKVWVADDGAAVAVWTTPESVEAGAVFAEIGPRMAELSGSRLAAQQQMEGLLAPHRPKEPAWFLATVGVSPDHQGKGLGSAVVLPGVEAAERAGVPAFLETSAPRNLPFYERLGFTVTADVEVPEGPRTWCMTRKPGA"}, "B2": {"name": "22294 (protein)", "chain": "MALPVTALLLPLALLLHAARPQLQLQESGPGLVKPSETLSLTCTVSGDSISSGDYYWGWIRQPPGKGLEWIGHIYYSGVTYYNPSLKSRVTISVDTSRNQFSLKLSSVTAADTAVYYCTREDSSNWRSRGQGTLVTVSSLEGSIPEDTFFPSPESSCDVKLVEKSFETDTNLNFQNLSVIGFRILLLKVAGFNLLMTLRLWSSRAKRSGSGVKQTLNFDLLKLAGDVESNPGPTSATMDWIWRILFLVGAATGAHSEFMDPDLEIRAAFLRQRNTALRTEVAELEQEVQRLENEVSQYETRYGPLGGGKTRGSGRADCGFTSESYQQGVLSATILYEILLGKATLYAVLVSALVLMAMVKRKDSRGRAKRSGSGATNFSLLKQAGDVEENPGPSRGHMTEYKPTVRLATRDDVPRAVRTLAAAFADYPATRHTVDPDRHIERVTELQELFLTRVGLDIGKVWVADDGAAVAVWTTPESVEAGAVFAEIGPRMAELSGSRLAAQQQMEGLLAPHRPKEPAWFLATVGVSPDHQGKGLGSAVVLPGVEAAERAGVPAFLETSAPRNLPFYERLGFTVTADVEVPEGPRTWCMTRKPGA"}, "B3": {"name": "CD8SP-CD22-FHVH-24-PSMA71v2-chVH-Myc-CD8TM-BBZ-T2A-PAC (protein)", "chain": "MALPVTALLLPLALLLHAARPQLQLQESGPGLVKPSETLSLTCTVSGDSISSGDYYWGWIRQPPGKGLEWIGHIYYSGVTYYNPSLKSRVTISVDTSRNQFSLKLSSVTAADTAVYYCTREDSSNWRSRGQGTLVTVSSLESGGGGSFEVQLVESGGGVVQPGRSLRLSCAASGFSFSGYGMHWVRQAPGKGLEWVAYISYDGSNKYYADSVKGRFTISRDNSKNTLYLQMNSLRAEDTAVYYCAKDPAWGLRLGESSSYDFDIWGQGTMVTVSSTREQKLISEEDLAKPTTTPAPRPPTPAPTIASQPLSLRPEACRPAAGGAVHTRGLDFACDIYIWAPLAGTCGVLLLSLVITLYCKRGRKKLLYIFKQPFMRPVQTTQEEDGCSCRFPEEEEGGCELRVKFSRSADAPAYQQGQNQLYNELNLGRREEYDVLDKRRGRDPEMGGKPRRKNPQEGLYNELQKDKMAEAYSEIGMKGERRRGKGHDGLYQGLSTATKDTYDALHMQALPPRSSGSGEGRGSLLTCGDVEENPGPHMTEYKPTVRLATRDDVPRAVRTLAAAFADYPATRHTVDPDRHIERVTELQELFLTRVGLDIGKVWVADDGAAVAVWTTPESVEAGAVFAEIGPRMAELSGSRLAAQQQMEGLLAPHRPKEPAWFLATVGVSPDHQGKGLGSAVVLPGVEAAERAGVPAFLETSAPRNLPFYERLGFTVTADVEVPEGPRTWCMTRKPGA"}, "B4": {"name": "22045 (protein)", "chain": "MALPVTALLLPLALLLHAARPQLQLQESGPGLVKPSETLSLTCTVSGDSISSGDYYWGWIRQPPGKGLEWIGHIYYSGVTYYNPSLKSRVTISVDTSRNQFSLKLSSVTAADTAVYYCTREDSSNWRSRGQGTLVTVSSLEGSPIKTDVITMDPKDNCSKDANDTLLLQLTNTSAYYMYLLLLLKSVVYFAIITCCLLRRTAFCCNGEKSRAKRSGSGATNFSLLKQAGDVEENPGPTSMDWIWRILFLVGAATGAHSFEVQLVESGGGVVQPGRSLRLSCAASGFSFSGYGMHWVRQAPGKGLEWVAYISYDGSNKYYADSVKGRFTISRDNSKNTLYLQMNSLRAEDTAVYYCAKDPAWGLRLGESSSYDFDIWGQGTMVTVSSTRDKTHTCPPCPAIPEDTFFPSPESSCDVKLVEKSFETDTNLNFQNLSVIGFRILLLKVAGFNLLMTLRLWSSRAKRSGSGVKQTLNFDLLKLAGDVESNPGPSRGHMTEYKPTVRLATRDDVPRAVRTLAAAFADYPATRHTVDPDRHIERVTELQELFLTRVGLDIGKVWVADDGAAVAVWTTPESVEAGAVFAEIGPRMAELSGSRLAAQQQMEGLLAPHRPKEPAWFLATVGVSPDHQGKGLGSAVVLPGVEAAERAGVPAFLETSAPRNLPFYERLGFTVTADVEVPEGPRTWCMTRKPGA"}, "B5": {"name": "SEQ ID NO: 22286: engineered NKG2D-YA domain attached to the N-terminus of the IgCL fragment of a SAR with Ab-TCR backbone (protein)", "chain": "MALPVTALLLPLALLLHAARPACLFNQEVQIPLTESYCGPCPKNWICYKNNCYQFFDESKNWYESQASCMSQNASLLKVYSKEDQDLLKLVKSAHWMGLVHIPTNGSWQWEDGSILSPNLLTIIEMQKGDCALYASSFKGYIENCSTPNTYICMQRTVLEGQPKANPTVTLFPPSSEELQANKATLVCLISDFYPGAVTVAWKADGSPVKAGVETTKPSKQSNNKYAASSYLSLTPEQWKSHRSYSCQVTHEGSTVEKTVAPTECSPIKTDVITMDPKDNCSKDANDTLLLQLTNTSAYYMYLLLLLKSVVYFAIITCCLLRRTAFCCNGEKSRAKRSGSGATNFSLLKQAGDVEENPGPTSATMDWIWRILFLVGAATGAHSGPQVQLQESGGGLAQAGGSLRLSCAASGRTFSMGWFRQAPGKEREFVAAITYSGGSPYYASSVRGRFTISRDNAKNTVYLQMNSLKPEDTAVYYCAANPTYGSDWNAENWGQGTQVTVSSGSGGGGSGGGGSGGGGSFEQVQLQQPGAELVKPGASVKMSCKASGYAFSSYWINWMKQKPGQGLEWIGQIYPGDGDTNYNGKFKGRATLTADTSSSTAYMQLSSLTSEDSAVYFCARSITTVVGCAMDYWGQGTSVTVSSTRASTKGPSVFPLAPSSKSTSGGTAALGCLVKDYFPEPVTVSWNSGALTSGVHTFPAVLQSSGLYSLSSVVTVPSSSLGTQTYICNVNHKPSNTKVDKRVEPKSCEVKTDSTDHVKPKETENTKQPSKSCHKPKAIVHTEKVNMMSLTVLGLRMLFAKTVAVNFLLTAKLFFLRAKRSGSGVKQTLNFDLLKLAGDVESNPGPSRGHMTEYKPTVRLATRDDVPRAVRTLAAAFADYPATRHTVDPDRHIERVTELQELFLTRVGLDIGKVWVADDGAAVAVWTTPESVEAGAVFAEIGPRMAELSGSRLAAQQQMEGLLAPHRPKEPAWFLATVGVSPDHQGKGLGSAVVLPGVEAAERAGVPAFLETSAPRNLPFYERLGFTVTADVEVPEGPRTWCMTRKPGA"}},
  "key": {"[1]": {"system": "LNCaP cells", "assay": "JNG assay, co-culture with LNCaP cells", "format": "cell-based", "conditions": "for NFAT-GFP ASSAY: LNCaP: co-culture with LNCaP", "experimental": "Cellular supernatant is collected and assayed for the induction of cytokines (e.g., IL2).\nJNG (Jurkat cells expressing EGFP under an NFAT promoter) were infected with lentiviral vectors encoding different single chain and multi-chain SARs by spinfection in the presence of 8 µg/ml of Polybrene® (Sigma, Catalog no. H9268). The Jurkat-NFAT-GFP cells are engineered in such a way that the IL-2 promoter, which carries NFAT binding sites, is cloned upstream of the GFP gene. These cells have been used to study signaling via TCR and CAR. The different SARs were stably expressed in Jurkat NFAT-GFP cells by lentiviral mediated gene transfer, followed by selection with puromycin or blasticidin. No drug selection was used in case the construct lacked an antibiotic resistance gene. The SAR-expressing Jurkat-NFAT-GFP cells were cocultured with the target cells at E:T ratio of approximately 1:2 for approximately 4 hours to 18 hours. When the interaction between SIRs and their target antigen results in activation of the NFAT pathway, GFP expression is induced. […] GFP expression was monitored by FACS analysis. The Jurkat-NFAT-GFP (parental) cells were used as control. The structure of different constructs can be determined based on their names. For example, the construct CD8SP-CD19-hu-mROO5-1-vL-[hTCRa-C SDVP]-F-F2A-Spe-IgHSP-Apa-CD20-vHH-2HCD25-G4S-CDl9-hu-mROO5-1-vH-Mlu-[hTCRb-KACIAH]-F-P2A-PAC has the following modules from 5′ to 3′ direction: a CD8 signal peptide (CD8SP), the CD19 targeting hu-mROO5-1 vL fragment (CD19-hu-mROO5-1), Xho1 cloning site, human TCRa constant chain containing CSDVP mutations (hTCRa-CSDVP), Furine cleavage site (F), F2A ribosomal skip sequence (F2A), SpeI site, human IgH signal peptide (IgHSP), Apa I restriction enzyme site, camelid CD20-2HCD25-VHH module targeting CD20, BamHI restriction enzyme site, Glycinex4-serine linker (G4S), BstI restriction enzyme site, CD19-hu-mROO5-1-vH fragment targeting CD19, Mlu I restriction enzyme site, human TCRb constant chain containing KACIAH mutations ([hTCRb-KACIAH]), Furine cleavage site (F), P2A ribosomal skip sequence and Puromycin resistance gene (PAC). The sequence of the other constructs in the table can be similarly determined from their names and by referring to the different Tables of this disclosure that provide the names and SEQ ID NO of the different modules. Alternatively, the composition and modular architecture of the different SAR constructs can be determined from their sequences by bioinformatics tools, including using nucleic acid and amino acids homology searches. A SAR is considered positive in the assay in case the SAR expressing Jurkat-NFAT-GFP cells show greater % GFP positive cells when cultured with the target cell line as compared to parental Jurkat-NFAT-GFP cells. The signs +/-, +, 2+ etc. after the name of the cell lines indicate the relative degree of positivity on the Jurkat-NFAT-GFP assay as measured by the % GFP positive cells after culture of the SAR expressing Jurkat-NFAT-GFP cells with that cell line above the % GFP cells observed in parental Jurkat NFAT-GFP cells serving as controls. In general, the number +/-, +, 2+, 3+, 4+, 5+ refer to approximately 5%, 10%, 20%, 30%, 40% and 50% GFP positive cells. The % of GFP induction in the above assay is dependent not only the relative strength of the SAR but also, among other factors, on the relative level of expression of the SAR in the JNG cells and the relative level of expression of the target antigen in the target cell line. To control for the difference in gene transduction efficiency of the different SAR constructs, the experiment was conducted with JNG cells transduced with SAR constructs co-expressing a drug resistance gene (e.g., puromycin or PAC) followed by drug selection to generate a stable population of SAR-expressing cells. […]"}, "[2]": {"system": "RAJI cells", "assay": "JNG assay, co-culture with RAJI cells", "format": "cell-based", "conditions": "co-culture with RAJI cells", "method_in_brief": "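Jurkat-NFAT-GFP (JNG) cells stably expressing SAR constructs via lentiviral transduction and puromycin/blasticidin selection were cocultured with target cells at E:T ~1:2 for ~4–18 h. NFAT-driven GFP was measured by FACS versus parental JNG cells; scores +/- to 5+ denote ~5–50% GFP-positive cells.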"}},
  "data": [
    {"molecule": "B1", "values": [
      {"measurement": "NFAT-GFP ASSAY: LNCaP", "setting": "[1]", "value": "+ (refer to approximately 5%, 10%, 20%, 30%, 40% and 50% GFP positive cells)"}
    ]},
    {"molecule": "B2", "values": [
      {"measurement": "NFAT-GFP ASSAY: LNCaP with PSMA-USC76-chVH-EZIP", "setting": "[1]; LNCaP in presence of SAR adaptor PSMA-USC76-chVH-EZIP", "value": "+1"}
    ]},
    {"molecule": "B3", "values": [
      {"measurement": "GFP induction (relative degree of positivity)", "setting": "[1]; PSMA-expressing LNCaP cells", "value": "+5.5"},
      {"measurement": "GFP induction / activity", "setting": "[2]", "value": "able to effectively induce GFP"}
    ]},
    {"molecule": "B4", "values": [
      {"measurement": "NFAT-GFP ASSAY: LNCaP", "setting": "[1]", "value": "+/- (refer to approximately 5%, 10%, 20%, 30%, 40% and 50% GFP positive cells)"}
    ]},
    {"molecule": "B5", "values": [
      {"measurement": "GFP induction", "setting": "[1]; LNCaP cells, only in the presence of SAR-adaptor PSMA-USC76-chVH-G4S-ULBP2-S3 (SEQ ID NO: 23114)", "value": "induction of GFP"},
      {"measurement": "GFP induction / activity", "setting": "[2]", "value": "robust induction of GFP"}
    ]}
  ]
}
